According to paper PMC2764403 (Biochemistry, 2009):

Legend:
Test in all cases: AUC
[1] = target: human βA3-crystallin (human) (UniProt P05813)
[2] = target: βB1ΔN47, tryptic product of murine βB1-crystallin (residues 1-47 removed) (murine)
[3] = target: βB1ΔN56, murine βB1-crystallin with N-terminal residues 1-56 deleted (murine)
murine βB1-crystallin = target: T1, murine βB1-crystallin (murine, UniProt Q9WVJ5 1-250)
T1 sequence (looked up): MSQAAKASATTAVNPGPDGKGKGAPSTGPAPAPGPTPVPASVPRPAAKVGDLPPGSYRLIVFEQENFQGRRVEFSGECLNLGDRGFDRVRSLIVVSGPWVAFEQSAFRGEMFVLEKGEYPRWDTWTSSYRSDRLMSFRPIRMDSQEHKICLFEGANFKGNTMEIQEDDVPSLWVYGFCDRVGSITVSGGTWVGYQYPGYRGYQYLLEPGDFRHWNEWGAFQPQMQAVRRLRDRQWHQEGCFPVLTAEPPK

AUC = target: the molecule itself

With “βB1ΔN47, tryptic product of murine βB1-crystallin (residues 1-47 removed) (domain or fragment)” the Kd [1] was 200 nM, the Kd [2] was 1400 nM and the stoichiometry N [2] was 2.

In the case of “βB1ΔN56, murine βB1-crystallin with N-terminal residues 1-56 deleted (domain or fragment)”, the stoichiometry N [3] is reported as 4.

B1: βA3ΔN30, human βA3-crystallin with N-terminal residues 1-30 deleted and residue 31 replaced by glycine (domain or fragment, UniProt P05813-1 31-215, looked up)
chain: GKITIYDQENFQGKRMEFTSSCPNVSERSFDNVRSLKVESGAWIGYEHTSFCGQQFILERGEYPRWDAWSGSNAYHIERLMSFRPICSANHKESKMTIFEKENFIGRQWEISDDYPSLQAMGWFNNEVGSMKIQSGAWVCYQYPGYRGYQYILECDHHGGDYKHWREWGSHAQTSQIQSIRRIQQ
With B1 the Kd (murine βB1-crystallin) was 5000 nM, the Kd (AUC) was 100 nM and the “stoichiometry N” value (AUC) was 2.
